Data published in publication PMC11532467.

Biological target: Glycylhalorhodopsin from Salinarimonas soli (SsGHR) (Salinarimonas soli)
Assay: crystal structure

stoichiometry N: 3
Substance: Glycylhalorhodopsin from Salinarimonas soli (SsGHR) (natural protein)
